The experiment deals with HIV-1 Env of the 208-virus panel (Env-pseudoviruses). Kind of experiment: cell-based or functional assay.

Consider 4 molecules from patent publication US20250197483A1.

B1: VRC07-523LS.v14 (antibody, V domains shown)
VH: QVRLSQSGGQMKKPGDSMRISCDASGYEFINCPINWIRLAPGKRPEWMGWMKPRFGAVSYARQLQGRVTMTRQLSQDPDDPDWGTAFLELRSLTSDDTAVYFCTRGKYCTARDYYNWDFEHWGQGTPVTVSS
VL: LTQSPGTLSLSPGETAIISCDTSQYGSLAWYQQRPGQAPRLVIYSGSTRAAGIPDRFSGSRWGPDYNLTISNLESGDFGVYYCQQYEFFGQGTKVQVDI
With B1, the neutralization of Env-pseudoviruses on TZM-bl cells, share of the panel at IC80 less than 1 µg/ml (% of the 208-virus panel) was 92.

B2: VRC07-523LS.v32 (antibody, V domains shown)
VH: QVRLSQSGGQMKKPGDSMRISCSASGYEFINCPINWIRLAPGKRPEWMGWMKPRFGAVSYARQLQGRVTMTRQLSQDPDDPDWGTAFLELRSLTSDDTAVYFCTRGSYCTARDYYNWDFEHWGQGTPVTVSS
VL: LTQSPGTLSLSPGETAIISCSTSQYGSLAWYQQRPGQAPRLVIYSGSTRAAGIPDRFSGSRWGPDYNLTISNLESGDFGVYYCQQYEFFGQGTKVQVDI
B2 displayed a neutralization of Env-pseudoviruses on TZM-bl cells, share of the panel at IC80 less than 1 µg/ml (% of the 208-virus panel) of 92.

B3: N6LS.C1 (antibody, V domains shown)
VH: RAHLVQSGTAMKKPGASVRVSCQTSGYTFTAHILFWFRQAPGRGLEWVGWIKPQYGAVNFGGGFRDRVTLTRQLSQDPDDPDWGIAYMDIDGLKPDDTAVYYCARDRSYGDSSWALDAWGQGTTVVVSA
VL: YIHVTQSPSSLSVSIGDDVTINCQTSQGVGSDLHWYQHKPGRAPKLLIHHTSSVEDGVPSRFSGSGFHTSFNLTISDLQADDIATYYCQVLQFFGRGSRLHIKR
On to B3, for which the neutralization of Env-pseudoviruses on TZM-bl cells, share of the panel at IC80 <1 µg/ml (% of 208 viruses) was greater than 73 and the neutralization of Env-pseudoviruses on TZM-bl cells, share of the panel at IC80<1 µg/ml (% of viruses (208-virus panel)) was 73.

B4: N6LS.C30 (antibody, V domains shown)
VH: RAHLVQSGTAMKEPGASVRVSCQTSGYTFTAHILFWFRQAPGRGLEWVGWIKPQYGAVNFGGGFRDRVTLTRQLSQDPDDPDWGIAYMDIRGLKPDDTAVYYCARDRSYGDSSWALDAWGQGTTVVVSA
VL: YIHVTQSPSSLSVSIGDEVTINCQTSQGVGSDLHWYQHKPGRAPKLLIHHTSSVEDGVPSRFSGSGFHTSFNLTISDLQADDIATYYCQVLQFFGRGSRLHIKR
B4: the neutralization of Env-pseudoviruses on TZM-bl cells, share of the panel at IC80 <1 µg/ml (% of 208 viruses) is greater than 73 and the neutralization of Env-pseudoviruses on TZM-bl cells, share of the panel at IC80<1 µg/ml (% of viruses (208-virus panel)) amounted to 77.
